Source: patent US20190276542A1 (QILU PUGET SOUND BIOTHERAPEUTICS, published 2019)
Substitutions are numbered along the chain they refer to.

B1: anti-hPD1 antibody #1 (antibody, V domains shown)
VH: QVQLVQSGAEVKKPGASVKVSCKASGYTFTNYWIHWVRQAPGQGLEWMGEIDPYDSYTNYNQKFKGRVTMTVDKSTSTVYMELSSLRSEDTAVYYCARPGFTYGGMDFWGQGTLVTVSS
VL: DIQMTQSPSSLSASVGDRVTITCKSSQSLFNSGNQKNYLAWYQQKPGKVPKLLIYGASTRDSGVPYRFSGSGSGTDFTLTISSLQPEDVATYYCQNDHYYPYTFGGGTKVEIKR
notes: also called Anti-hPD1 #1; Anti-PD1 #1
B2: altered anti-hPD1 antibody #1 (antibody, human IgG4 S228P, kappa, V domains shown)
VH: B1 VH with G44D, Q111R
VL: B1 VL with V49D, G106R
B3: altered anti-hCTLA4 10D4 (antibody, human IgG1, kappa, V domains shown)
VH: QVQLVESGGGVVEPGRSLRLSCTASGFTFSSYGMHWVRQAPGKRLEWVAVIWYHPSKKDYADSAKGRFTISRDNSKNTLYLQMNSLRAEDTAVYYCARAGLLGYFDYWGDGTLVTVSS
VL: EIVLTQSPGTLSLSPGERATLSCRASQSVTSYLAWYQQKPGQRPRPLIYGVSSRATGIPDRFSGSGSGTDFTLTISRLEPEDFAVYYCQQYGRYPFTFGDGTKVDIKR
B4: anti-hPD1 antibody #7 (antibody, human IgG4, V domains shown)
VH: B1 VH with V72I, S77N, F101L
VL: DIVMTQSPDSLAVSLGERATINCRSSQSLFISGNQKNYLAWYQQKPGQPPKLLIYGASTRESGVPDRFSGSGSGTDFTLTISSLQAEDVAVYYCQNNHYYPYTFGGGTKVEIK
notes: also called Anti-hPD1 #7; Anti-PD1 #7
B5: anti-hPD1 antibody #10 (antibody, human IgG4, V domains shown)
VH: B1 VH with N31S, I34M, Y54F, V72I, S77N, R87G, F101Y
VL: B4 VL with E61D
notes: also called Anti-hPD1 #10; Anti-PD1 #10
B6: anti-hPD1 antibody #3 (antibody, human IgG4, V domains shown)
VH: B1 VH with G26S, I34M, V72I, K74T, R87T
VL: DIQMTQSPSSLSASVGDRVTITCKSSQSLFNSGNQKNYLAWYQQKPGKVPKLLIYGASTRESGVPARFSGSGSGTDFTLTISSLQAEDVATYYCQNDHYYPYTFGGGTKVEIK
notes: also called Anti-hPD1 #3; Anti-PD1 #3
B7: anti-hPD1 antibody #14 (antibody, human IgG4, V domains shown)
VH: B1 VH with V72G, R87T, F101Y
VL: B6 VL with V49L, E61D, A66S, A86P
notes: also called Anti-hPD1 #14; Anti-PD1 #14
B8: anti-hPD1 antibody #2 (antibody, human IgG4, V domains shown)
VH: B1 VH with N31S, I34M, F101N, F108Y
VL: B6 VL with K24R, E61D, A66Y, A86P
notes: also called Anti-hPD1 #2; Anti-PD1 #2
B9: anti-hPD1 antibody #5 (antibody, human IgG4, V domains shown)
VH: B1 VH with I34M, Y54F, V72R
VL: B6 VL with K24R, F30L, V49L, E61D, A66S
notes: also called Anti-hPD1 #5; Anti-PD1 #5
B10: anti-hPD1 antibody #4 (antibody, human IgG4, V domains shown)
VH: B1 VH with I34M, Y54F, V72R, K74T, R87T, F101Y
VL: B6 VL with F30L, V49P, E61D, A66S, A86P
notes: also called Anti-hPD1 #4; Anti-PD1 #4
B11: anti-hPD1 antibody #9 (antibody, human IgG4, V domains shown)
VH: B1 VH with N31S, I34M, V72I, R87T
VL: B4 VL with F30L, E61D
notes: also called Anti-hPD1 #9; Anti-PD1 #9

Target: T1, human PD1 expressed on a cell surface (human, UniProt Q15116 25-288)
Test: cell-based or functional assay

T1 sequence (Q15116 25-288): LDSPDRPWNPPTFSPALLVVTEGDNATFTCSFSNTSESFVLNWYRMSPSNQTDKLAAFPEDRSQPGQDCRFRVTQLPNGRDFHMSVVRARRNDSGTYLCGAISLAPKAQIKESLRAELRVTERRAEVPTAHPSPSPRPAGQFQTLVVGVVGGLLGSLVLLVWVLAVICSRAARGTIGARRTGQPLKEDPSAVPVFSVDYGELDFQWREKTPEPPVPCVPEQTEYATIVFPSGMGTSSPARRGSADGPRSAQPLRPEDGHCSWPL

Binder | IC50, luciferase reporter assay (Jurkat cells with hPD1 plus CHO cells with hPDL1) | IC50, luciferase reporter assay (Jurkat cells with hPD1 plus CHO cells with hPDL1); tested as the mixture Altered anti-CTLA4 11F4 and altered anti-PD1 #1 made in one cell line
B1 | 2.5 nM | –
B2 | 2.67 nM | 3.34 nM

Target: human CTLA4 expressed on Jurkat T cells (human, UniProt P16410 36-223)
Test: cell-based or functional assay

human CTLA4 expressed on Jurkat T cells, sequence (P16410 36-223): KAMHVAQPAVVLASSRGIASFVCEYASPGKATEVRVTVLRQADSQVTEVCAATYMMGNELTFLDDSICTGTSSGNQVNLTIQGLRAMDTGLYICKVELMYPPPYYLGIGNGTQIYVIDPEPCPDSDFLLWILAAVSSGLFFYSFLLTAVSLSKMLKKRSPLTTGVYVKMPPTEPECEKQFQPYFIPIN

Binder | IC50, luciferase reporter assay (Jurkat cells with CTLA4 plus Raji cells with hCD80 and hCD86)
B3 | 3.75 nM

Target: T1, human PD1 expressed on a cell surface
Test: flow cytometry on OKT3-activated human T cells, CD4- cells
Method: (§1) The following experiment tested whether the selected anti-hPD1 antibodies can bind to native PD1 expressed on the surface of activated T cells. Human PBMCs were pre-activated with OKT3 (an anti-CD3 antibody) at a concentration of 1 μg/ml. After three days, the PBMCs, which were mostly activated T cells at this time, were distributed into a 96 well microtiter plate using 0.1×10⁶ cells/well. […] The antibody bound to CD4⁺ T cells and CD4⁻ T cells (which were predominately CD8⁺ T cells) was detected using anti-hlgG-FITC and an anti-CD4 antibody labeled with allophycocyanin (anti-CD4-APC).
(§2) The samples were analyzed by flow cytometry (FACScalibur, BD), and binding was reported as an MFI. EC₅₀'s for binding were calculated using GraphPad Prism software.

Binder | EC50
B1 | 1.37 nM
B4 | 0.569 nM
B5 | 1.6 nM
B6 | 0.69 nM
B7 | 0.449 nM
B8 | 0.416 nM
B9 | 1.12 nM
B10 | 0.885 nM
B11 | 1.48 nM

Target: T1, human PD1 expressed on a cell surface
Test: cell-based or functional assay
Remark: another data set of the same source

Binder | EC50 for CD4+ T cell proliferation (pM), mixed lymphocyte reaction | EC50 for CD8+ T cell proliferation (pM), mixed lymphocyte reaction | EC50 for IFN gamma production (pM), mixed lymphocyte reaction
B1 | 135 pM | 323 pM | 890 pM
B4 | 165 pM | 1520 pM | 1460 pM
B5 | 234 pM | 839 pM | 2210 pM
B6 | 365 pM | 3670 pM | 2220 pM
B10 | 391 pM | 534 pM | 1540 pM

Target: T2, soluble, biotinylated PD1 protein containing only the extracellular region (human, UniProt Q15116 25-170, biotinylated in vivo (site not stated))
T2 construct: extracellular domain; also called biotinylated hPD1
Test: …; inhibition of GST-hPDL1 binding to biotinylated hPD1
Method: Finally, 10 μL of streptavidin donor beads (which can bind the biotinylated hPD1) were added to bring the final concentration of donor beads to 16 μg/mL, and the plates were incubated in the dark at RT for one hour. […] An antibody that inhibits this interaction or binding will decrease the signal, since the inhibiting antibody prevents physical proximity of the donor and acceptor beads.
Plates were read in an EnVision 2103 Multilabel Reader (PerkinElmer) using illumination at a wavelength of 680 nm and reading emission at a wavelength of about […]. The results were plotted and IC₅₀ values were calculated using GraphPad Prism software.

T2 sequence (Q15116 25-170): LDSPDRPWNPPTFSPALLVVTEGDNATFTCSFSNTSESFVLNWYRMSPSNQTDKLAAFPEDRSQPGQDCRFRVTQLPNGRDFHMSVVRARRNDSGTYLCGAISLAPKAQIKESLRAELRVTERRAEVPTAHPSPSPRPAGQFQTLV

Binder | IC50
B1 | 0.197 nM
B4 | 0.307 nM
B5 | 0.279 nM
B6 | 0.305 nM
B10 | 0.314 nM

Target: T1, human PD1 expressed on a cell surface
Test: flow cytometry on OKT3-activated human T cells, CD4+ cells
Method: as §1, §2

Binder | EC50
B1 | 0.918 nM
B4 | 0.439 nM
B5 | 1.07 nM
B6 | 0.536 nM
B7 | 0.39 nM
B8 | 0.398 nM
B9 | 0.974 nM
B10 | 0.672 nM
B11 | 1.01 nM

Target: T1, human PD1 expressed on a cell surface
Test: cell-based or functional assay
Remark: another data set of the same source

Binder | IC50, luciferase (RLU), PD1 dual cell reporter assay (Jurkat cells with hPD1 plus CHO-K1 cells with hPDL1)
B1 | 1.18 nM
B4 | 2.39 nM
B5 | 2.69 nM
B6 | 2.37 nM
B7 | 2.69 nM
B8 | 2.45 nM
B9 | 3 nM
B10 | 2.03 nM
B11 | 3.13 nM

Target: T3, extracellular domain of a recombinant cynomolgus (rcyno) PD1 (cynomolgus monkey, UniProt B0LAJ3 25-170)
T3 construct: also called recombinant cynomolgus PD1
Test: SPR (Biacore 3000), antibody captured by anti-human IgG, PD1 as analyte
Method: (§3) Biosensor analysis was conducted at 25° C. in an HBS-EP buffer (10 mM HEPES, 150 mM NaCl, 3 mM EDTA, 0.005% polysorbate 20, 0.1% bovine serum albumin, pH 7.4) using a Biacore 3000 optical biosensor equipped with a CM5 sensor chip according to the manufacturer's general protocol. The auto sampler was maintained at ambient temperature. […] About 8000 resonance units (RU) of this antibody was immobilized on these chips. Flow cell 4 was used to analyze captured anti-hPD1 antibodies (about 100 to 200 RU were captured on flow cell 4), while flow cell 3 was used as the reference flow cell. Both analytes, recombinant human PD1 and recombinant cynomolgus PD1, were prepared in five concentrations for each antibody tested. The analyte concentrations tested ranged from 1.2 to 300 nM. All analyte dilutions were prepared in HPS-EP buffer. Each of the five analyte sample concentrations were run in duplicate and in a mixed order, as a means of assessing the reproducibility of binding and mitigating systematic bias to the order of injection. Multiple blank (running buffer) injections also were run and used to assess and subtract system artifacts. The association phase and dissociation phase for all analyte concentrations were monitored for 300 seconds and 1500 seconds, respectively, at a flow rate of 50 μL/min. Between antibody samples the surface of the flow cell was regenerated with 10 mM glycine, pH 1.5 for 30 seconds at a flow rate of 50 μL/min.
(§4) The data was aligned, double referenced, and fit using SCRUBBER 2™ software (BioLogic Software, Pty, Australia), which is a Surface Plasmon Resonance (SPR) data processing and non-linear least squares regression fitting program.

T3 sequence (B0LAJ3 entry or part of it limits assumed): as the sequence (Q15116 25-170) above, with D2E, P10A, V19L, T35A, Q75R, T144A counted along it

Binder | Kd | koff | kon
B1 | 5.06 nM | 0.000597 s⁻¹ | 118000 M⁻¹ s⁻¹
B4 | 0.4 nM | 5.79e-05 s⁻¹ | 145000 M⁻¹ s⁻¹

Target: T4, recombinant human (rhu) PD1 (extracellular domain only) (human, UniProt Q15116 25-170)
T4 construct: extracellular domain; also called recombinant human PD1
Test: as above
Method: as §3, §4

T4 sequence (Q15116 25-170): as the sequence (Q15116 25-170) above

Binder | Kd | koff | kon
B1 | 2.18 nM | 0.000133 s⁻¹ | 60900 M⁻¹ s⁻¹
B4 | 0.297 nM | 3.54e-05 s⁻¹ | 119000 M⁻¹ s⁻¹
B5 | 0.917 nM | 7.15e-05 s⁻¹ | 78000 M⁻¹ s⁻¹
B6 | 5.16 nM | 0.000348 s⁻¹ | 67400 M⁻¹ s⁻¹
B10 | 4.62 nM | 0.000279 s⁻¹ | 60400 M⁻¹ s⁻¹

Target: T1, human PD1 expressed on a cell surface
Test: cell-based or functional assay
Remark: another data set of the same source

Binder | IC50, luciferase reporter assay (Jurkat cells with hPD1 plus CHO cells with hPDL1) | IC50, luciferase reporter assay (Jurkat cells with hPD1 plus CHO cells with hPDL1); tested as the mixture Altered anti-CTLA4 10D4 and altered anti-PD1 #1 made in one cell line
B1 | 2.49 nM | –
B2 | 2.65 nM | 3.8 nM
